# Experimental data reported in patent US20090311265A1 (CRUCELL HOLLAND B V, published 2009).
# Numbering of substitutions follows the chain as printed.
# B1: CR6296 (antibody, V domains shown)
# VH: EVQLVETGAEVKKPGASVKVSCKASGYTFTSYYMHWVRQAPGQGLEWMGWINPNSGGTNYAQKFQGRVTMTRDTSISTAYMELSRLRSDDTAVYYCAREGKWGPQAAFDIWGQGTMVTVSS
# VL: EIVMTQSPGTLSLSPGERATLSCRASQSVSSSYLAWYQQKPGQAPRLLIYDASSRATDIPDRFSGSGSGTDFTLTISRLEPEDFAVYYCQQYGSSLWTFGQGTKVEIKR
# B2: CR6301 (antibody, V domains shown)
# VH: EVQLVESGGGLVQPGGSLRLSCAASGFTFSIYAMSWVRQAPGKGLEWVSAISSSGDSTYYADSVKGRFTISRDNARNTLYLQMNSLRAEDTAVYYCARAYGYTFDPWGQGTLVTVSS
# VL: not shown
# B3: CR6344 (antibody, V domains shown)
# VH: QVQLVQSGAEVKKPGSSVRVSCKASGSIFRNYAMSWVRQAPGQGLEWMGGIIAIFGTPKYAQKFQGRVTITADESTSTVYMELSGLRSEDTAMYYCARIPHYNFGSGSYFDYWGQGTLVTVSS
# VL: TVLTQPPSVSGAPGQRVTISCTGSSSNIGAGYDVHWYQQLPGTAPKLLIYGNSNRPSGVPDRFSGSKSGTSATLGITGLQTGDEADYYCGTWDSSLSAYVFGTGTKVTVLG
# B4: CR6314 (antibody, V domains shown)
# VH: EVQLVESGAEVKKPGSSVKVSCKASGGPFRSYAISWVRQAPGQGPEWMGGIIPIFGTTKYAPKFQGRVTITADDFAGTVYMELSSLRSEDTAMYYCAKHMGYQVRETMDVWGKGTTVTVSS
# VL: SYVLTQPPSASGTPGQRVTISCSGSSSNIGSNYVYWYQQLPGTAPKLLIYRDGQRPSGVPDRFSGSKSGTSASLAISGLRSDDEADYYCATWDDNLSGPVFGGGTKLTVLG
# B5: CR6343 (antibody, V domains shown)
# VH: QVQLVQSGAEVKKPGSSVKVSCKASGVTFSYYAMSWVRQAPGQGLEWMGGISPMFGTTTYAQKFQGRVTITADDSTSTAYMEVRSLRSEDTAVYYCARSSNYYDSVYDYWGQGTLVTVSS
# VL: QSVVTQPPSESVAPGQTARITCGGHNIGSNSVHWYQQKPGQAPVLVVYDNSDRPSGIPERFSGSNSGNTATLTISRVEAGDEADYYCQVWGSSSDHYVFGTGTKVTVLG
# B6: CR6339 (antibody, V domains shown)
# VH: EVQLVESGAEVKKPGSSVKVSCKASGGIFNSYAISWVRQAPGQGLEWMGGIIAIFHTPKYAQKFQGRVTITADESTNTAYMELRSLKSEDTALYYCARGSTYDFSSGLDYWGQGTLVTVSS
# VL: QAGLTQPPSVSVAPGQTARITCGGNNIGSKSVHWYQQKPGQAPVLVVYDDSDRPSGIPERFSGSNSGNTATLTISRVEAGDEADYYCQVWDSSSDHVVFGGGTKLTVLG
# B7: CR6141 (antibody, V domains shown)
# VH: EVQLVQSGAEVKKPGASVKVSCKASGYTFTGYYVYWVRQAPGQGLEWMGWISAYNGNTNYAQKFQGRVTITADKSTSTAYMELSSLRSEDTAVYYCARSRSLDVWGQGTTVTVSS
# VL: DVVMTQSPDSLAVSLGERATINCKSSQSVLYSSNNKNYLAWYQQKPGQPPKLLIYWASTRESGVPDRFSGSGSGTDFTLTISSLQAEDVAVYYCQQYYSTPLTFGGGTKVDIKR
# B8: CR6307 (antibody, V domains shown)
# VH: QVQLVQSGGGLVKPGGSLRLSCAASGFTFSSYSMNWVRQAPGKGLEWVSSISSSSSYIYYVDSVKGRFTISRDNAKNSLYLQMNSLRAEDTAVYYCARGGGSYGAYEGFDYWGQGTLVTVSS
# VL: EIVLTQSPGTLSLSPGERATLSCRASQRVSSYLAWYQQKPGQAPRLLIYGASTRAAGIPDRFSGSGSGTDFTLTISRLEPEDSAVYYCQQYGRTPLTFGGGTKVEIKR
# B9: CR6272 (antibody, V domains shown)
# VH: QMQLVQSGAEVKKPGSSVKVSCKASGGTFSSYAITWVRQAPGQGLEWMGGIIGMFGSTNYAQNFQGRVTITADESTSTAYMELSSLRSEDTAVYYCARSTGYYPAYLHHWGQGTLVTVSS
# VL: QSALTQPRSVSGSPGQSVTISCTGTSSDVGGYNYVSWYQQHPGKAPKLMIYDVSKRPSGVPDRFSGSKSGNTASLTISGLQAEDEADYYCSSYTSSSTHVFGTGTKVTVLG
# B10: CR6323 (antibody, V domains shown)
# VH: B9 VH with Q1E, M2V, Q6E, A33G, T35S, G50D, V68L, T100S, H108P
# VL: not shown
# B11: CR6257 (antibody, V domains shown)
# VH: B4 VH with E1Q, E6Q
# VL: B9 VL with R8A, S9A, V18I, D52E, K55N, P61S, D62N, H99Y
# Key:
# [1] = target: T1, soluble recombinant HA (sHA) of H5N1TV (influenza A virus A/Vietnam/1194/2004 …, UniProt Q6J8F6 17-528); experiment: immunoblot (data not shown)
# [2] = target: recombinant HA, subtype H3 (A/Wyoming/3/2003(H3N2)) (influenza A virus A/Wyoming/3/2003 …); experiment: ELISA, coated HA, IgG 5 µg/ml
# [3] = target: recombinant HA, subtype H1 (A/New Caledonia/20/99 (H1N1)) (influenza A virus A/New Caledonia/20/99 …, UniProt Q289M7 18-565); experiment: ELISA, coated HA, IgG 5 µg/ml
# [4] = target: T2, recombinant HA, subtype H5 (A/Vietnam/1203/2004 (H5N1)) (influenza A virus A/Vietnam/1203/2004 …, UniProt Q80A26 6-554); experiment: ELISA, coated HA, IgG 5 µg/ml
# [5] = target: full-length HA from isolate A/Vietnam/1194/2004 (H5N1TV) on PER.C6 cells (influenza A virus A/Vietnam/1194/2004 …, UniProt Q80A26 6-554); experiment: flow cytometry, transfected PER.C6 cells
# [6] = target: T2, recombinant HA, subtype H5 …; experiment: competition ELISA on coated HA, IgG 10 µg/ml, competitor: phage antibodies
# [7] = target: T1, soluble recombinant HA (sHA) of H5N1TV; experiment: immunoblot, reducing SDS-PAGE
binder,measurement,setting,value
B1,binding result,[1],binds
B2,binding result,[1],binds
B3,OD 492 nm,[2],0.09 OD 492 nm
same,OD 492 nm,[3],1.8 OD 492 nm
same,OD 492 nm,[4],1.31 OD 492 nm
same,flow cytometry signal at 0.1 µg/ml,[5],107
same,flow cytometry signal at 1 µg/ml,[5],328
same,flow cytometry signal at 10 µg/ml,[5],768
B4,OD 492 nm,[2],0.07 OD 492 nm
same,OD 492 nm,[3],1.93 OD 492 nm
same,OD 492 nm,[4],1.48 OD 492 nm
same,flow cytometry signal at 0.1 µg/ml,[5],44.5
same,flow cytometry signal at 1 µg/ml,[5],167
same,flow cytometry signal at 10 µg/ml,[5],400
B5,residual binding of phage antibody in the presence of the IgG,[6],> 25%
same,OD 492 nm,[2],0.07 OD 492 nm
same,OD 492 nm,[3],1.28 OD 492 nm
same,OD 492 nm,[4],0.76 OD 492 nm
B6,residual binding of phage antibody in the presence of the IgG,[6],> 25%
same,OD 492 nm,[2],0.07 OD 492 nm
same,OD 492 nm,[4],0.81 OD 492 nm
B7,binding result,[1],binds
B8,OD 492 nm,[2],0.11 OD 492 nm
same,OD 492 nm,[4],0.99 OD 492 nm
same,binding result,[7],binds
same,flow cytometry signal at 0.1 µg/ml,[5],82.4
same,flow cytometry signal at 1 µg/ml,[5],267
same,flow cytometry signal at 10 µg/ml,[5],485
B9,residual binding of phage antibody in the presence of the IgG,[6],> 25%
same,OD 492 nm,[2],0.07 OD 492 nm
same,OD 492 nm,[3],0.81 OD 492 nm
same,OD 492 nm,[4],0.58 OD 492 nm
B10,OD 492 nm,[2],0.07 OD 492 nm
same,OD 492 nm,[3],2.32 OD 492 nm
same,OD 492 nm,[4],1.89 OD 492 nm
same,binding result,[7],binds
same,flow cytometry signal at 0.1 µg/ml,[5],33.4
same,flow cytometry signal at 1 µg/ml,[5],117
same,flow cytometry signal at 10 µg/ml,[5],445
B11,OD 492 nm,[2],0.08 OD 492 nm
same,OD 492 nm,[3],1.93 OD 492 nm
same,OD 492 nm,[4],1.37 OD 492 nm
same,flow cytometry signal at 0.1 µg/ml,[5],62.1
same,flow cytometry signal at 1 µg/ml,[5],284
same,flow cytometry signal at 10 µg/ml,[5],365
